Test [1] deals with T1, human FLi1 protein with N-terminal FLAG tag (human, UniProt Q01543 1-452, limits assumed).
T1 construct: not shown: N-terminal FLAG tag
T1 sequence (looked up): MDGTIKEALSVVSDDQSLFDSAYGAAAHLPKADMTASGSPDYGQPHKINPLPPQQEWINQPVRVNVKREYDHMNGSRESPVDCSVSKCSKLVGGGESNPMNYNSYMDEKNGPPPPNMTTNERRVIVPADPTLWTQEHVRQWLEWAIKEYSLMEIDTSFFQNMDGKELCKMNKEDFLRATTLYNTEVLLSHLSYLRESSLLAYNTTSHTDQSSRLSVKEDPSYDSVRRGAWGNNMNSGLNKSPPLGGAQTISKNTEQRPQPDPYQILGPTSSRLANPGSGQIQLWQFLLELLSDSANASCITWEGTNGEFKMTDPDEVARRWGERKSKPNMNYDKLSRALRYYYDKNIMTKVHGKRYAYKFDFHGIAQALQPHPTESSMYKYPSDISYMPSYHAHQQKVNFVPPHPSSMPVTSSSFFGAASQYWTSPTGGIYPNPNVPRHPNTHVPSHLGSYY
The test can be described thus: Western blot of transiently expressed FLAG-tagged protein. The procedure:
Therefore, the 9FY antibody was tested to see if it can discriminate between human ERG3 and the human FLi1 protein using Western blot assays. In this assay, transiently expressed human ERG3 (encoded by TMPRSS2/ERG3 construct) or human FLi1 protein was evaluated with the 9FY antibody.
A general note: Immunoblotting shows a protein as a band on a membrane.

The target of test [2] is T2, human ERG3 (wild type ERG3 protein, 53 kDa) (human, UniProt P11308 1-479).
T2 construct: Expressed heterologously in HEK-293 cells (pIRES-EGFP(CMV)-ERG3), as protein lysate in the ELISA, or in LNCaP cells by Ad-ERG3 adenovirus; also called ERG3 antigen
T2 sequence: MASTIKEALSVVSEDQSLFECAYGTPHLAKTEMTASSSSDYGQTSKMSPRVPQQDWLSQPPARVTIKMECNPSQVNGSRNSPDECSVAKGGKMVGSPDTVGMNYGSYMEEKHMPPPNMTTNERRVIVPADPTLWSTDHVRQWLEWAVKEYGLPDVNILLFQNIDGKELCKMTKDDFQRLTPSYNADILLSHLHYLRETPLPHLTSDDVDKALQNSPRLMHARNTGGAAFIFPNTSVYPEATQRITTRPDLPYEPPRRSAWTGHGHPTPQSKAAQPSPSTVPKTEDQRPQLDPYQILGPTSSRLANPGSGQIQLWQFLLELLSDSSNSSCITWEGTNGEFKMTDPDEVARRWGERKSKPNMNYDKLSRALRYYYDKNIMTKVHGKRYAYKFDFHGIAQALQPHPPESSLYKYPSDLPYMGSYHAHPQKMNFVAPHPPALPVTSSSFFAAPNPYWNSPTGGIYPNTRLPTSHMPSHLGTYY
The test can be described thus: sandwich ELISA on ERG3 protein lysate, 9FY titrated by fold dilution, absorbance at 450 nm; competitor: immunizing polypeptide. (In an ELISA, binding on a coated surface is turned into a signal by an enzyme label.)

Test [3] has as its target T3, immunizing polypeptide (amino acids 42-66 of SEQ ID NO: 1) (human).
T3 construct: Chemically synthesized; also called ERG 42-66 polypeptide
T3 peptide: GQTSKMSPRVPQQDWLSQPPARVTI
Briefly: direct ELISA, peptides plated at 1 to 1000 ng/mL (x axis 'ERG, ng/mL', log scale), probed with 9FY at 1:10,000, absorbance at 450 nm. The protocol: Various concentrations of the immunizing polypeptide and two control polypeptides were plated in wells for ELISA and were probed with 1:10,000 dilution of 9FY antibody. Y-axis indicates absorbance values at 450 nm. On the X-axis the log 10 concentration of the ERG immunizing polypeptide and control polypeptides is shown in ng/ml. […] In sandwich ELISA assay, ERG3 protein lysates were plated in multi-well format plates and were assayed with various concentrations of 9FY antibody in the presence (white bar) or absence of the immunizing polypeptide (shaded bar). Fold dilution is marked on the X-axis. Antibody titration values are marked by shaded bars.
In an ELISA assay, we assessed the sensitivity and specificity of the 9FY antibody measuring the titer of various concentrations of the immunizing polypeptide (i.e. amino acids 42-66 of SEQ ID NO: 1). For direct ELISA, plates were first coated with 100 μl of ERG3 antigen at 1 ng/ml, 10 ng/ml, 100 ng/ml and 1 μg/ml and incubated for 16 h at 4° C. on a shaker before washing the plate five times with PBSt (300 μl/well). […] Absorbance was measured at 450 nm on a […]® Ascent (Thermo Scientific, Waltham, Mass.) ELISA plate reader according to the manufacturer's recommendation and the absorbance were plotted against antibody dilution. […]

This is an account of results in patent US20140370023A1 (HENRY M JACKSON FOUNDATION FOR THE ADVANCEMENT OF MILITARY …, published 2014).

B1: 9FY antibody (monoclonal antibody produced by the hybridoma clone 9FY) (antibody, V domains shown)
VH: QIQLVQSGPDLKKPGETVKISCKASGYTFTNYGINWVKQAPGKGFKWMGWIDTYTGEPTYVDDFKGRFVFSLETSASTAYLQINNLKNEDTATYFCVRKRAYDYEIYWGQGTPLTVSS
VL: ENVLTQSPAIMSASLGEKVTLSCRASSSVYYMFWYQQKSDASPKLWIYYTSNLAPGVPARFSGSGSGNSYSLTISSVEGEDAATYYCLQFSTSPWTFGGGTKLEIKR
notes: Mouse (Balb/C) hybridoma antibody purified from ascites over Protein G; sub-type determined to be IgG; also called ERG-MAb; 9FY monoclonal antibody
For B1, the binding result is reported as “no binding” in test [1], “binds” in test [2] and “binds” in test [3].
